Reference: the supplement of paper PMC7877785
± gives the uncertainty stated by the source.

Assay: self-splicing fitness, log relative to wild type (ln ratio); higher = more splicing; Tetrahymena group I intron in knt gene, E. coli kanamycin selection, DiMSum; sequences stand for … in CUCUCU…GGAGGGAAAAGUUAUCAGGCAUGCACCUGGUAGCUAGUCUUUAAACCAAUAGAUUGCAUCGGUUUAAAAGGCAAGACCGUCAAAUUGCGGGAAAGGGGUCAACAGCCGUUCAGUACCAAGUCUCAGGGGAAACUUUGAGAUGGCCUUGCAAAGGGUAUGGUAAUAAGCUGACGGACAUGGUCCUAACCACGCAGCCAAGUCCUAAGUCAACAGAUCUUCUGUUGAUAUGGAUGCAGUUCACAGACUAAAUGUCGGUCGGGGAAGAUGUAUUCUUCUCAUAAGAUAUAGUCGGACCUCUCCUUAAUGGGAGCUAGCGGAUGAAGUGAUGCAACACUGGAGCCGCUGGGAACUAAUUUGUAUGCGAAAGUAUAUUGAUUAGUUUUGGAGUACUCGUGGUCG
Summary of the method: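 Pooled colonies went to amplicon sequencing on an Illumina HiSeq 2500 after six replicate transformations. The plates were LB agar with 100 μg/mL carbenicillin, 50 μM IPTG and 0.2% rhamnose, with or without 25 μg/mL kanamycin, incubated overnight at 37°C or 30°C. The E. coli BL21(DE3) library had all eight P1ex-region intron nucleotides randomised, the intron placed in the knt kanamycin-resistance gene on pET-22b(+). DiMSum fitness is the error-weighted combination of replicate fold changes, kanamycin against none, normalised to wild type.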

Sequence | self-splicing fitness (ln) (30 °C) | self-splicing fitness (ln) (37 °C)
AGAAAGCAAUAUUACGCUAA | -2.38 ± 0.34 | -1.11 ± 0.4
AGAAAGCAAUAUUACGCUUG | -2.37 ± 0.15 | -1.73 ± 0.18
AGAAAGCAAUAUUACGGACC | -0.299 ± 0.3 | 0.21 ± 0.3
AGAAAGCAAUAUUACGGAUA | -2.15 ± 0.15 | -1.77 ± 0.15
AGAAAGCAAUAUUACGGAUC | -1.53 ± 0.13 | -0.656 ± 0.17
AGAAAGCAAUAUUACGGAUG | -2.93 ± 0.14 | -2.04 ± 0.14
AGAAAGCAAUAUUACGGCAC | -0.435 ± 0.087 | -0.727 ± 0.13
AGAAAGCAAUAUUACGGCUU | -1.26 ± 0.072 | -0.7 ± 0.089
AGAAAGCAAUAUUACGGUUC | -2.72 ± 0.12 | -1.83 ± 0.13
AGAAAGCAAUAUUACGGUUG | -3.65 ± 0.17 | -1.78 ± 0.16
AGAAAGCAAUAUUACGGUUU | -0.927 ± 0.068 | -0.0576 ± 0.082
AGAAAGCAAUAUUACGUAAC | -3.26 ± 0.22 | -2.47 ± 0.33
AGAAAGCAAUAUUACGUGCA | -0.717 ± 0.079 | -0.292 ± 0.099
AGAAAGCAAUAUUACGUUAG | -2.91 ± 0.19 | -2.69 ± 0.18
AGACAGCAAUAUUACGAAAG | -2.18 ± 0.17 | -2.48 ± 0.21
AGACAGCAAUAUUACGAACG | -1.29 ± 0.1 | -0.106 ± 0.12
AGACAGCAAUAUUACGAGAU | -2.88 ± 0.1 | -2.85 ± 0.18
AGACAGCAAUAUUACGAGCG | -0.874 ± 0.071 | -0.405 ± 0.081
AGACAGCAAUAUUACGAGUU | -2.26 ± 0.086 | -1.14 ± 0.099
AGACAGCAAUAUUACGAUAA | -2.68 ± 0.16 | -0.931 ± 0.15
AGACAGCAAUAUUACGAUAU | -1.93 ± 0.064 | -0.802 ± 0.07
AGACAGCAAUAUUACGAUCA | -0.682 ± 0.074 | 0.267 ± 0.089
AGACAGCAAUAUUACGAUUU | 0.0877 ± 0.068 | 0.119 ± 0.086
AGACAGCAAUAUUACGCAAC | -3.42 ± 0.22 | -1.2 ± 0.14
AGACAGCAAUAUUACGCACC | -0.553 ± 0.13 | 0.279 ± 0.17
AGACAGCAAUAUUACGCAUG | -2.45 ± 0.13 | -1.23 ± 0.11

Sequence | self-splicing fitness (ln) (30 °C) | self-splicing fitness (ln) (37 °C)
AGACAGCAAUAUUACGCUAA | -2.17 ± 0.11 | -0.0364 ± 0.1
AGACAGCAAUAUUACGCUGA | -2.39 ± 0.16 | -1.75 ± 0.19
AGACAGCAAUAUUACGGAGU | -4.06 ± 0.16 | -2.28 ± 0.13
AGACAGCAAUAUUACGGCAU | -0.544 ± 0.052 | -0.211 ± 0.066
AGACAGCAAUAUUACGGCGG | -2.25 ± 0.13 | -0.609 ± 0.14
AGACAGCAAUAUUACGGGAU | -1.22 ± 0.098 | -1.71 ± 0.14
AGACAGCAAUAUUACGGGGG | -3.63 ± 0.26 | -2.79 ± 0.23
AGACAGCAAUAUUACGGUAA | -2.04 ± 0.11 | -1.37 ± 0.085
AGACAGCAAUAUUACGGUAC | -3.29 ± 0.17 | -2.41 ± 0.17
AGACAGCAAUAUUACGGUUC | -3.34 ± 0.18 | -1.05 ± 0.13
AGACAGCAAUAUUACGUAAU | -1.3 ± 0.05 | -0.92 ± 0.071
AGACAGCAAUAUUACGUCUA | -1.31 ± 0.097 | -0.608 ± 0.099
AGACAGCAAUAUUACGUUCA | -0.336 ± 0.056 | -0.159 ± 0.086
AGACAGCAAUAUUACGUUGA | -3.58 ± 0.16 | -1.77 ± 0.11
AGACAGCAAUAUUACGUUUA | -2.45 ± 0.094 | -0.782 ± 0.083
AGACAGCAAUAUUACGUUUU | -3 ± 0.13 | -3.77 ± 0.24
AGAGAGCAAUAUUACGAUAG |  | -0.994 ± 0.49
AGAGAGCAAUAUUACGAUCA | -1.93 ± 0.16 | -1.44 ± 0.17
AGAGAGCAAUAUUACGAUGU | -2.52 ± 0.41 | -2.69 ± 0.36
AGAGAGCAAUAUUACGCAAU | -3.58 ± 0.43 | -2.48 ± 0.29
AGAGAGCAAUAUUACGCACC | 0.805 ± 0.35 | 
AGAGAGCAAUAUUACGCAUA | -3.84 ± 0.39 | -2.96 ± 0.47
AGAGAGCAAUAUUACGCAUU | -3.41 ± 0.18 | -2.35 ± 0.15
AGAGAGCAAUAUUACGCGAU |  | -2.82 ± 0.43
AGAGAGCAAUAUUACGCUCA | -2.44 ± 0.27 | -1.11 ± 0.21
AGAGAGCAAUAUUACGCUGA | -2.75 ± 0.18 | -2.94 ± 0.28

Sequence | self-splicing fitness (ln) (30 °C) | self-splicing fitness (ln) (37 °C)
AGAGAGCAAUAUUACGGACU | -0.413 ± 0.12 | -0.495 ± 0.17
AGAGAGCAAUAUUACGGCCG | -3.41 ± 0.36 | -1.39 ± 0.28
AGAGAGCAAUAUUACGGGUC |  | -3.11 ± 0.48
AGAGAGCAAUAUUACGGUAA | -2.95 ± 0.31 | -2.28 ± 0.33
AGAGAGCAAUAUUACGGUAU | -3.91 ± 0.37 | -3.55 ± 0.29
AGAGAGCAAUAUUACGGUGA | -3.54 ± 0.38 | 
AGAGAGCAAUAUUACGGUUA | -3.1 ± 0.25 | -1.83 ± 0.21
AGAGAGCAAUAUUACGUAGC | -4.09 ± 0.3 | -3.62 ± 0.46
AGAGAGCAAUAUUACGUCAA | -2.29 ± 0.5 | 
AGAGAGCAAUAUUACGUCUA | -2.48 ± 0.35 | -0.494 ± 0.26
AGAGAGCAAUAUUACGUGAA | -2.82 ± 0.3 | -2.16 ± 0.29
AGAGAGCAAUAUUACGUGCA | -3.36 ± 0.26 | -2.34 ± 0.24
AGAGAGCAAUAUUACGUUAA | -3.32 ± 0.25 | -2.36 ± 0.24
AGAGAGCAAUAUUACGUUAU | -2.61 ± 0.18 | -2.64 ± 0.48
AGAGAGCAAUAUUACGUUUA |  | -2.08 ± 0.33
AGAUAGCAAUAUUACGAAUG | -2.62 ± 0.13 | -1.32 ± 0.11
AGAUAGCAAUAUUACGCAGC | -2.44 ± 0.22 | -1.43 ± 0.4
AGAUAGCAAUAUUACGCCCG | -0.427 ± 0.23 | -0.478 ± 0.24
AGAUAGCAAUAUUACGCCGU | -0.974 ± 0.11 | -0.953 ± 0.12
AGAUAGCAAUAUUACGCGAC | -2.67 ± 0.29 | -1.21 ± 0.39
AGAUAGCAAUAUUACGGUCA | -0.325 ± 0.08 | 0.317 ± 0.11
AGAUAGCAAUAUUACGGUGA | -1.9 ± 0.2 | -0.858 ± 0.17
AGAUAGCAAUAUUACGGUUA | -0.766 ± 0.11 | -0.936 ± 0.1
AGAUAGCAAUAUUACGUCCU | 0.545 ± 0.095 | 0.159 ± 0.1
AGAUAGCAAUAUUACGUGGU | -3.03 ± 0.11 | -2.27 ± 0.15
AGAUAGCAAUAUUACGUUUG | -3.06 ± 0.23 | -1.21 ± 0.17
